Drawing on US20100273710 (published 2010), this text covers Ki for 1 molecule.

Read-outs that look alike come from different tables or passages of the source.

Assay [1] has as its target T1, NOP receptor (Homo sapiens, UniProt P41146). The assay is described as follows: competition, [3H]N/OFQ.
Assay [2] addresses T1, NOP receptor. Put plainly: competition, [3H]N/OFQ. This is another data set of the same source.
Assay [3] concerns the target MOP receptor (Homo sapiens, UniProt P35372). The assay is described as follows: competition, [3H]-diprenorphine.
For assay [4], the target named is T2, DOP receptor (Homo sapiens, UniProt P41143).
T2 chain: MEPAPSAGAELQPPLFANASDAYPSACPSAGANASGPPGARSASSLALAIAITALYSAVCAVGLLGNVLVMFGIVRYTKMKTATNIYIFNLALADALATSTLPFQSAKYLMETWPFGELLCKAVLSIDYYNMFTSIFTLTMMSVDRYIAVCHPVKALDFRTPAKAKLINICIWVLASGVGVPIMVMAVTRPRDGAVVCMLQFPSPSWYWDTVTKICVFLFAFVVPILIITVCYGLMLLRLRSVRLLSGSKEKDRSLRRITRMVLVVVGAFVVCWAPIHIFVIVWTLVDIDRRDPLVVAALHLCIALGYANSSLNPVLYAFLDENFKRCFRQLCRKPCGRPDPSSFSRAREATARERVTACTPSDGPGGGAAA
The assay is described as follows: competition, [3H]-diprenorphine.

T1 sequence (P41146 whole entry): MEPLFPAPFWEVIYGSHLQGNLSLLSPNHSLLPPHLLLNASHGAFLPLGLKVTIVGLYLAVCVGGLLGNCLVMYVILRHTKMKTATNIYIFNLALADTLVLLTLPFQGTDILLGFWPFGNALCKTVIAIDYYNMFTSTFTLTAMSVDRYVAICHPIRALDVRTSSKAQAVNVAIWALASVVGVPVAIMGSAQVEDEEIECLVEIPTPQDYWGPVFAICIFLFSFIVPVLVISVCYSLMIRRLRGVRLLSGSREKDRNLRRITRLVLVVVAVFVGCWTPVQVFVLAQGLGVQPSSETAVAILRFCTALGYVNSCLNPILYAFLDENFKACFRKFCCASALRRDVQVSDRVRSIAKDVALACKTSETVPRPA
Chain of MOP receptor (P35372 whole entry): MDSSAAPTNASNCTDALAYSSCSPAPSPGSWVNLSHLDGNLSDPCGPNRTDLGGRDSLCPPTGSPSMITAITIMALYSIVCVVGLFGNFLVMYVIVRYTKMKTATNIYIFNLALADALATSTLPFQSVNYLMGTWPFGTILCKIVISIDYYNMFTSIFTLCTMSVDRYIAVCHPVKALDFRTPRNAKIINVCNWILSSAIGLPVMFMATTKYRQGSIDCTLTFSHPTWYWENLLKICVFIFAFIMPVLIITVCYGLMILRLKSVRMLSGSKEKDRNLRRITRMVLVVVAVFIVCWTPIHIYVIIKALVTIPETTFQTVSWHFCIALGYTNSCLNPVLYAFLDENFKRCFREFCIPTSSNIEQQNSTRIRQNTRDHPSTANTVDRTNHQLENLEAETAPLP

As for XGGFTGXRKSARKRKNQ ([Nphe1,Aib7,Arg14,Lys15]N/OFQ-NH2; X1 = Nphe, X7 = Aib, C-terminal amide) [UFP-111], the Ki was 0.178 nM in assay [1], 17.8 nM in assay [2], more than 10000 nM in assay [3] and more than 10000 nM in assay [4].

By Ki is commonly meant the dissociation constant of the complex between target and ligand, obtained from inhibition or displacement. Read a low Ki as tighter binding.
